In the supplement of paper PMC9233669:
This sample holds only a part of the variants without activity.

How the values were obtained:
[1] = system: biotinyl-Phe-oxazolone; assay: self-aminoacylation, catalytic enhancement (BFO) (fold over background); higher = more active; k-Seq, kA / k0A0; sequences stand for … in GGGAAUGGAUCCACAUCUACGAAUUC…UUCACUGCAGACUUGACGAAGCUG
Summary of the method: (§1)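 The uncatalyzed rate is the low-activity peak of a bimodal Gaussian fit, and catalytic enhancement is median kA divided by it. The kA values came from pseudo-first-order fits, with 1000 bootstraps, of per-sequence fraction reacted measured by streptavidin capture, triplicate qPCR and Illumina sequencing. Mutagenized RNA pools with a 21-nt variable region (0.43 μM) were reacted with each biotinyl-aminoacyl-oxazolone at 2–1250 μM in 50 μL HEPES/NaCl/KCl/MgCl2/CaCl2 buffer with 5% acetonitrile, pH 6.9–7.0, for 90 minutes at room temperature.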

[2] = system: biotinyl-Ile-oxazolone; assay: self-aminoacylation, catalytic enhancement (BIO) (fold over background); higher = more active; k-Seq, kA / k0A0; sequences stand for … in GGGAAUGGAUCCACAUCUACGAAUUC…UUCACUGCAGACUUGACGAAGCUG
Summary of the method: as §1

[3] = system: biotinyl-Met-oxazolone; assay: self-aminoacylation, catalytic enhancement (BMO) (fold over background); higher = more active; k-Seq, kA / k0A0; sequences stand for … in GGGAAUGGAUCCACAUCUACGAAUUC…UUCACUGCAGACUUGACGAAGCUG
Summary of the method: as §1

[4] = system: biotinyl-Val-oxazolone; assay: self-aminoacylation, catalytic enhancement (BVO) (fold over background); higher = more active; k-Seq, kA / k0A0; sequences stand for … in GGGAAUGGAUCCACAUCUACGAAUUC…UUCACUGCAGACUUGACGAAGCUG
Summary of the method: as §1

[5] = system: biotinyl-Leu-oxazolone; assay: self-aminoacylation, catalytic enhancement (BLO) (fold over background); higher = more active; k-Seq, kA / k0A0; sequences stand for … in GGGAAUGGAUCCACAUCUACGAAUUC…UUCACUGCAGACUUGACGAAGCUG
Summary of the method: as §1

[6] = system: biotinyl-Trp-oxazolone; assay: self-aminoacylation, catalytic enhancement (BWO) (fold over background); higher = more active; k-Seq, kA / k0A0; sequences stand for … in GGGAAUGGAUCCACAUCUACGAAUUC…UUCACUGCAGACUUGACGAAGCUG
Summary of the method: as §1

| Sequence | self-aminoacylation [1] | self-aminoacylation [2] | self-aminoacylation [3] | self-aminoacylation [4] | self-aminoacylation [5] | self-aminoacylation [6] |
| --- | --- | --- | --- | --- | --- | --- |
| AAGUUCGCUAAUAGUCGCCAG [Fam3.1 aminoacylation ribozyme variant] | 11.6 | 2.33 | 1.84 | 1.81 | 1.79 | 2.27 |
| AUUACCCUGUUCAUCGAGCGA [Fam2.1 aminoacylation ribozyme variant] | 1.13 | 1.2 | 1.35 | 1.33 | 1.36 | 1.08 |
| AUUCACCUUGGUAAUCGGGUG [Fam2.2 aminoacylation ribozyme variant] | 24.4 | 2.23 | 3.95 | 2.35 | 5.19 | 3.98 |
| AUUACCCUGGAGAUCGAGUGA [Fam2.1 aminoacylation ribozyme variant] | 28.9 | 3.59 | 6.7 | 3.79 | 7.42 | 8.06 |
| CCACACUUCAAGCAUCCGGUC [Fam1B.1 aminoacylation ribozyme variant] | 0.999 | 1.03 | 0.859 | 1.38 | 0.817 | 1.11 |
| AUUACCCUGUUCCUCGAGUGA [Fam2.1 aminoacylation ribozyme variant] | 11.2 | 2.27 | 3.86 | 2.68 | 3.54 | 4.81 |
| AAGUUUGCUAAGAGUCGCAAC [Fam3.1 aminoacylation ribozyme variant] | 0.845 | 1.21 | 1.07 | 1.19 | 1.27 | 1.28 |
| AGUCACCUAGGUCGUCGGGUG [Fam2.2 aminoacylation ribozyme variant] | 12.9 | 2.48 | 2.28 | 2.43 | 4.29 | 2.71 |
| AUUCACCUAGGUCAUUGGGUG [Fam2.2 aminoacylation ribozyme variant] | 20.1 | 2.31 | 3.26 | 2.29 | 4.03 | 3.18 |
| AUUACCCUCGUCAUUGAGUGA [Fam2.1 aminoacylation ribozyme variant] | 11.2 | 2.22 | 4.09 | 2.55 | 3.99 | 5.16 |
| CUAAUUCAAACAUUCGGUCUG [Fam1A.1 aminoacylation ribozyme variant] | 0.983 | 1.05 | 1.03 | 0.979 | 1.02 | 1.02 |
| AAUACCUUGGUCAUCGAGUGA [Fam2.1 aminoacylation ribozyme variant] | 7.36 | 4.23 | 6.2 | 3.99 | 6.66 | 7.87 |
| CUCCUUCAAACAAUCUGUCUG [Fam1A.1 aminoacylation ribozyme variant] | 2.63 | 0.655 | 0.516 | 0.61 | 0.554 | 1.23 |
| AAGUUUGCUAAUAGUAGCAGG [Fam3.1 aminoacylation ribozyme variant] | 1.71 | 1.08 | 1.16 | 0.985 | 1.08 | 0.837 |
| CCGUUUGCUAAUAGUCGCAAG [Fam3.1 aminoacylation ribozyme variant] | 1.94 | 1.22 | 0.83 | 0.972 | 1.02 | 1.1 |
| AUUCACCUAGGUCCCCGGGUG [Fam2.2 aminoacylation ribozyme variant] | 58.4 | 5.12 | 8.22 | 4.54 | 9.96 | 7.84 |
| AAGUUUGCUAAUAUGCGCAAG [Fam3.1 aminoacylation ribozyme variant] | 1.34 | 0.847 | 0.89 | 0.61 | 0.843 | 1.2 |
| AUUCACCUAAGUCAUCGGGUC [Fam2.2 aminoacylation ribozyme variant] | 1.31 | 1.01 | 1.42 | 1.53 | 1.13 | 1.78 |
| CCACACUUCAAGCAACCGGUC [Fam1B.1 aminoacylation ribozyme variant] | 1.31 | 0.933 | 0.783 | 1.01 | 0.721 | 0.935 |
| GCACACUUCAAGCAAGCGGUC [Fam1B.1 aminoacylation ribozyme variant] | 3.91 | 2.42 | 1.93 | 2.54 | 2.06 | 3.01 |
| AUUUACCUAGGUCUUCGGGUG [Fam2.2 aminoacylation ribozyme variant] | 24.9 | 2.84 | 4.28 | 3.38 | 4.16 | 3.92 |
| AGUCACCUAAGUCAUCGGGUG [Fam2.2 aminoacylation ribozyme variant] | 69.3 | 4.94 | 6.86 | 4.5 | 6.89 | 6.74 |
| CUACUUCAGACAAUCGGUCAG [Fam1A.1 aminoacylation ribozyme variant] | 1.26 | 0.805 | 0.73 | 0.83 | 0.872 | 0.771 |
| GUUACCCUGGUCAUCGACUGA [Fam2.1 aminoacylation ribozyme variant] | 0.937 | 1.2 | 1.4 | 1.21 | 1.45 | 1.01 |
| AAGCUUGCUAGUAGUCGCAAG [Fam3.1 aminoacylation ribozyme variant] | 2.3 | 1.48 | 1.89 | 1.33 | 1.43 | 0.908 |
| AUUCACCUAGGUCAUCACGUG [Fam2.2 aminoacylation ribozyme variant] | 23.1 | 2.03 | 3.99 | 2.62 | 4.54 | 3.56 |

| Sequence | self-aminoacylation [1] | self-aminoacylation [2] | self-aminoacylation [3] | self-aminoacylation [4] | self-aminoacylation [5] | self-aminoacylation [6] |
| --- | --- | --- | --- | --- | --- | --- |
| AUUACCUUGGCCAUCGAGUGA [Fam2.1 aminoacylation ribozyme variant] | 2.01 | 1.95 | 2.38 | 1.62 | 2.5 | 3.26 |
| AAGUUUGAUAAUAGUCGAAAG [Fam3.1 aminoacylation ribozyme variant] | 1.03 | 0.705 | 0.568 | 0.592 | 0.543 | 0.785 |
| AUUCAUCUAGGUCAUCGAGUG [Fam2.2 aminoacylation ribozyme variant] | 4.08 | 2.63 | 3.88 | 2.38 | 4.86 | 3.67 |
| CUACUGCAAACAAUCGGUCUA [Fam1A.1 aminoacylation ribozyme variant] | 0.688 | 0.876 | 0.868 | 0.871 | 0.858 | 0.72 |
| AUUCACUCAGGUCAUCGGGUG [Fam2.2 aminoacylation ribozyme variant] | 41.3 | 3.48 | 4.85 | 4.16 | 6.71 | 4.79 |
| CUACUUCAACCAAUCGAUCUG [Fam1A.1 aminoacylation ribozyme variant] | 1.98 | 0.763 | 0.62 | 0.665 | 0.598 | 1.04 |
| GCACACUUCAACCAAUCGGUC [Fam1B.1 aminoacylation ribozyme variant] | 60.5 | 2.39 | 2.02 | 2.43 | 2.93 | 44 |
| CUAACUCAAACAAUCGGUCUG [Fam1A.1 aminoacylation ribozyme variant] | 3.32 | 0.761 | 0.648 | 0.742 | 0.716 | 1.24 |
| CUACUUCAAACAAUCAAUCUG [Fam1A.1 aminoacylation ribozyme variant] | 1.73 | 0.794 | 0.683 | 0.767 | 0.602 | 0.669 |
| AAGUUAGCUAAUAGUCCCAAG [Fam3.1 aminoacylation ribozyme variant] | 2.79 | 1.15 | 1.18 | 0.967 | 1 | 1.1 |
| UAGAUUGCUAAUAGUCGCAAG [Fam3.1 aminoacylation ribozyme variant] | 1.77 | 1.19 | 1.19 | 1.19 | 1.16 | 1.13 |
| AUUGACCUAGGUCCUCGGGUG [Fam2.2 aminoacylation ribozyme variant] | 29 | 4.32 | 4.64 | 3.24 | 5.76 | 5.43 |
| CUACUUCAUACAAUCGGUAUG [Fam1A.1 aminoacylation ribozyme variant] | 0.628 | 0.431 | 0.508 | 0.731 | 0.468 | 0.34 |
| AUUCGCCAAGGUCAUCGGGUG [Fam2.2 aminoacylation ribozyme variant] | 91.8 | 7.65 | 10.7 | 6.69 | 14.7 | 11 |
| UUUACCCUCGUCAUCGAGUGA [Fam2.1 aminoacylation ribozyme variant] | 10.2 | 2.46 | 3.25 | 2.35 | 2.68 | 4.02 |
| AAGUUUGCUAAUAGCCGGAAG [Fam3.1 aminoacylation ribozyme variant] | 3.2 | 1.25 | 1.14 | 1.25 | 1.4 | 2.38 |
| CCACACUUAAAGUAAUCGGUC [Fam1B.1 aminoacylation ribozyme variant] | 0.772 | 0.82 | 0.695 | 0.836 | 0.744 | 0.875 |
| AUUCAACUGGGUCAUCGGGUG [Fam2.2 aminoacylation ribozyme variant] | 39.5 | 3.89 | 5.25 | 3.96 | 7.37 | 5.74 |
| GUUCACCUAGAUCAUCGGGUG [Fam2.2 aminoacylation ribozyme variant] | 6.53 | 2.6 | 2.87 | 2.75 | 2.92 | 3.29 |
| CUACUUCAACCAAUCUGUCUG [Fam1A.1 aminoacylation ribozyme variant] | 2.12 | 0.597 | 0.504 | 0.592 | 0.485 | 0.777 |
| CCACACUUCAAGCAAUCGCUC [Fam1B.1 aminoacylation ribozyme variant] | 1.2 | 1.33 | 1.3 | 1.44 | 1.27 | 1.29 |
| AUUCACCUAUGUAAUCGGGUG [Fam2.2 aminoacylation ribozyme variant] | 36.4 | 3.11 | 5.17 | 2.91 | 7.44 | 5.74 |
| AAGUUUGCUAAUAAUCCCAAG [Fam3.1 aminoacylation ribozyme variant] | 1.03 | 0.76 | 0.949 | 0.961 | 0.736 | 1.38 |
| CUAGAUCAAACAAUCGGUCUG [Fam1A.1 aminoacylation ribozyme variant] | 2.24 | 0.703 | 0.578 | 0.798 | 0.708 | 1.22 |
| AAGUUUGCUAAUACUAGCAAG [Fam3.1 aminoacylation ribozyme variant] | 0.734 | 0.59 | 0.798 | 0.567 | 0.722 | 0.476 |
